Laboratory results from the supplement of paper PMC11246515.
± gives the standard deviation of the averaged measurements.

Assay: total protein half-life in vivo (active degradation + dilution); higher = more stable protein
[1] = E. coli NCM3722 delta-clpP delta-lon delta-hslV, growth: N-lim chemostat, doubling time 6 h
[2] = E. coli NCM3722 delta-clpP, growth: N-lim chemostat, doubling time 6 h
[3] = E. coli NCM3722 delta-hslV, growth: N-lim chemostat, doubling time 6 h
[4] = E. coli NCM3722 delta-lon, growth: N-lim chemostat, doubling time 6 h
[5] = E. coli NCM3722 delta-smpB, growth: N-lim chemostat, doubling time 6 h
[6] = wild type E. coli NCM3722, growth: C-lim chemostat, doubling time 3 h
[7] = wild type E. coli NCM3722, growth: C-lim chemostat, doubling time 6 h
[8] = wild type E. coli NCM3722, growth: C-lim chemostat, doubling time 12 h
[9] = wild type E. coli NCM3722, growth: N-lim chemostat, doubling time 6 h
[10] = wild type E. coli NCM3722, growth: N-lim chemostat, doubling time 12 h
[11] = wild type E. coli NCM3722, growth: P-lim chemostat, doubling time 6 h
[12] = wild type E. coli NCM3722, growth: P-lim chemostat, doubling time 12 h

Sequence	total protein half-life in vivo [1] [h]	total protein half-life in vivo [2] [h]	total protein half-life in vivo [3] [h]	total protein half-life in vivo [4] [h]	total protein half-life in vivo [5] [h]	total protein half-life in vivo [6] [h]	total protein half-life in vivo [7] [h]	total protein half-life in vivo [8] [h]	total protein half-life in vivo [9] [h]	total protein half-life in vivo [10] [h]	total protein half-life in vivo [11] [h]	total protein half-life in vivo [12] [h]
MTRTNLITGFLGSGKTTSILHLLAHKDPNEKWAVLVNEFGEVGIDGALLADSGALLKEIPGGCMCCVNGLPMQVGLNTLLRQGKPDRLLIEPTGLGHPKQILDLLTAPVYEPWIDLRATLCILDPRLLLDEKSASNENFRDQLAAADIIVANKSDRTTPESEQALQRWWQQNGGDRQLIHSEHGKVDGHLLDLPRRNLAELPASAAHSHQHVVKKGLAALSLPEHQRWRRSLNSGQGYQACGWIFDADTVFDTIGILEWARLAPVERVKGVLRIPEGLVRINRQGDDLHIETQNVAPPDSRIELISSSEADWNALQSALLKLRLATTA	4.59 ± 0.6	4.12 ± 0.58	3.4 ± 0.12	3.83 ± 0.31	3.47 ± 0.083	2.66 ± 0.31	5.66 ± 0.057	9.04 ± 0.88	3.47 ± 0.12	5.62 ± 0.064	5.197 ± 0.035	9.17 ± 0.28
MTSENPLLALREKISALDEKLLALLAERRELAVEVGKAKLLSHRPVRDIDRERDLLERLITLGKAHHLDAHYITRLFQLIIEDSVLTQQALLQQHLNKINPHSARIAFLGPKGSYSHLAARQYAARHFEQFIESGCAKFADIFNQVETGQADYAVVPIENTSSGAINDVYDLLQHTSLSIVGEMTLTIDHCLLVSGTTDLSTINTVYSHPQPFQQCSKFLNRYPHWKIEYTESTSAAMEKVAQAKSPHVAALGSEAGGTLYGLQVLERIEANQRQNFTRFVVLARKAINVSDQVPAKTTLLMATGQQAGALVEALLVLRNHNLIMTRLESRPIHGNPWEEMFYLDIQANLESAEMQKALKELGEITRSMKVLGCYPSENVVPVDPT [P0A9J8]	5.3 ± 1.8	4.03 ± 0.25	4.9 ± 1.2	4.67 ± 0.14	4.1437 ± 0.0033	2.62 ± 0.6	5.375 ± 0.04	11 ± 0.42	4.129 ± 0.037	6.55 ± 0.09	5.88 ± 0.58	11.77 ± 0.076
MTSLVVPGLDTLRQWLDDLGMSFFECDNCQALHLPHMQNFDGVFDAKIDLIDNTILFSAMAEVRPSAVLPLAADLSAINASSLTVKAFLDMQDDNLPKLVVCQSLSVMQGVTYEQFAWFVRQSEEQISMVILEANAHQLLLPTDDEGQNNVTENYFLH [P0AAY6]	2.64 ± 2.3		2.7	4.39	1.74 ± 1.4			1.21	0.868			
MTSSLPCGQTSLLLQMTERLALSDAHFRRISQLIYQRAGIVLADHKRDMVYNRLVRRLRSLGLTDFGHYLNLLESNQHSGEWQAFINSLTTNLTAFFREAHHFPLLADHARRRSGEYRVWSAAASTGEEPYSIAMTLADTLGTAPGRWKVFASDIDTEVLEKARSGIYRHEELKNLTPQQLQRYFMRGTGPHEGLVRVRQELANYVDFAPLNLLAKQYTVPGPFDAIFCRNVMIYFDQTTQQEILRRFVPLLKPDGLLFAGHSENFSHLERRFTLRGQTVYALSKD		6.56				1.34		3.42				
MTSSYLHFPEFDPVIFSIGPVALHWYGLMYLVGFIFAMWLATRRANRPGSGWTKNEVENLLYAGFLGVFLGGRIGYVLFYNFPQFMADPLYLFRVWDGGMSFHGGLIGVIVVMIIFARRTKRSFFQVSDFIAPLIPFGLGAGRLGNFINGELWGRVDPNFPFAMLFPGSRTEDILLLQTNPQWQSIFDTYGVLPRHPSQLYELLLEGVVLFIILNLYIRKPRPMGAVSGLFLIGYGAFRIIVEFFRQPDAQFTGAWVQYISMGQILSIPMIVAGVIMMVWAYRRSPQQHVS	> 8			7.73					6.89 ± 0.72		6.28 ± 0.24	11.5 ± 0.95
MTTLSCKVTSVEAITDTVYRVRIVPDAAFSFRAGQYLMVVMDERDKRPFSMASTPDEKGFIELHIGASEINLYAKAVMDRILKDHQIVVDIPHGEAWLRDDEERPMILIAGGTGFSYARSILLTALARNPNRDITIYWGGREEQHLYDLCELEALSLKHPGLQVVPVVEQPEAGWRGRTGTVLTAVLQDHGTLAEHDIYIAGRFEMAKIARDLFCSERNAREDRLFGDAFAFI [P0AEN1]	5.7 ± 0.93	4.72 ± 0.087	4.19 ± 0.12	4.62 ± 0.48	4.21 ± 0.8	2.74 ± 0.19	5.78 ± 0.43	8.71 ± 1.9	4.2 ± 0.26	7.18 ± 0.22	4.62 ± 1	9.49 ± 0.3
MTTLTAQQIACVYAWLAQLFSRELDDEQLTQIASAQMAEWFSLLKSEPPLTAAVNELENRIATLTVRDDARLELAADFCGLFLMTDKQAALPYASAYKQDEQEIKRLLVEAGMETSGNFNEPADHLAIYLELLSHLHFSLGEGTVPARRIDSLRQKTLTALWQWLPEFVARCRQYDSFGFYAALSQLLLVLVECDHQNR	5.85						4.24					9.47 ± 1.7
